Experimental data reported in the supplement of paper PMC12764529.
± gives the half width of the 95% confidence interval.

Legend:
[1] = folding stability dG unfold (combined trypsin and chymotrypsin); higher = more stable
In short: (§1)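 K50 was inferred by Bayesian fitting of sequencing counts obtained after protease digestion of designed mini-proteins. Unfolding free energy was derived by comparison with a sequence-predicted unfolded-state K50 and a shared folded-state K50, for each protease or both combined. The mini-proteins were under 80 residues, had no cysteine, were carried in a PA-tagged cDNA display construct, and were kept only if AlphaFold2 dimer inter-PAE exceeded 15.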

[2] = folding stability dG unfold from trypsin proteolysis; higher = more stable
In short: as §1

[3] = folding stability dG unfold from chymotrypsin proteolysis; higher = more stable
In short: as §1

Sequence | folding stability dG unfold [1] [kcal/mol] | folding stability dG unfold [2] [kcal/mol] | folding stability dG unfold [3] [kcal/mol]
SAFRIKIELWNPNGKPQEHTFPVPPGDPDKLVEEIEDEVQKHHPNDGYKMRAEILEVTPNGWVTIRIWYSAG [r14_622_TrROS] | 2.79 ± 0.18 | 2.66 ± 0.077 | 3.01 ± 0.11
SAGGNKGKTIQINFMIDPEDPEMMIEKISKWLQAKGFKIESIEPRPVGNRWMYSATFRVPNGREITIWSAGG [r13_421_TrROS] | 1.77 ± 0.17 | 1.76 ± 0.039 | 1.61 ± 0.19
SAGGSAGGSASVKVEEKPTEIVITTKSPSPVITVETIPLSPDGVPVGKKTTTISLPPKDIILSAGGSAGGSA [r18_300_JUSTAS] | -0.719 ± 0.47 | -0.3 ± 0.11 | -0.778 ± 0.15
SAGGSAGGMELLPDGTLVLTLKAPSLEEALKAAEALAPPGAEVEIRFDEETKEVVIVIKLPPPESAGGSAGG [r6_859_TrROS_Hall] | 3.85 ± 0.082 | 2.46 ± 0.1 | 4.06 ± 0.046
SAGGSAGGSAAKIELEDGTLRITLTRTVRDPATGETHTETLTLEIKLPPAPPPVVVVSPEDLSAGGSAGGSA [r18_501_TrROS_Hall] | 2.88 ± 0.092 | 2.32 ± 0.072 | 3.24 ± 0.037
SMVEIKVEKKEDGTVKITIVAPLEKAEEIAKKLAEELGKEVKIVKIEKKKVKVNGEERELVKIEIEIRLPSA [r9_431_TrROS_Hall] | 2.24 ± 0.78 | 2.86 ± 0.28 | 2.23 ± 0.31
SAGGSAGGSAMKLEVFPVPDGQIAVFEDADGNIRVIGVPEPNLSISDIAKIALDLGADSVELSAGGSAGGSA [r18_83_TrMRF] | 0.155 ± 0.16 | 0.451 ± 0.053 | -0.45 ± 0.21
SAGGSAGGMPEYRVLDIEIETRPDMTPEEAVEEIRKALEPLGAIRVEAEPLPDGRIRVRVVLPESAGGSAGG [r6_881_TrMRF] | 3.27 ± 0.32 | 3.5 ± 0.28 | 2.45 ± 0.25
SAGGSAIKLPPGVKIEYHMHPDGYMTITIEYPNGRPIEIPMRMDPNGPREMTPDQIRDFIKELLKNSAGGSA [r15_780_TrROS] | 2.4 ± 0.049 | 2.42 ± 0.038 | 2.33 ± 0.026
SAGGSAKKDGTITIKIPVKAPKDKNGKVFKPSAEAIKAKFGELGFDFEIEEIKESETYLEIKIKVKSAGGSA [r15_225_TrMRF] | 1.53 ± 0.21 | 0.51 ± 0.086 | 1.78 ± 0.093
SAGGSAGGSMTIVDPETGETLEIIEVKKNEDGKESFIFRISSPKPRYFIIDKDGNIRVIEKKDSAGGSAGGS [r12_205_TrROS_Hall] | 1.34 ± 0.074 | 1.36 ± 0.022 | 1.23 ± 0.2
SADPNYHYKYKIKIEIAWFPPDDLEKLPPGMIMIPFDDHWIMIVIKLEPVEREPPPPPPEYDPETGDWKSAG [r14_126_TrROS] | 3.23 ± 0.46 | 2.5 ± 0.43 | 3.38 ± 0.17
SAGGGPVTEETYTIKRPDGTELVVTRYYFPGTGETVVRIYPPSTKTPLSTVPLSEASPELLAEIARRSAGGS [r8_32_JUSTAS] | 1.79 ± 0.03 | 1.2 ± 0.027 | 2.108 ± 0.013
SAGGSAGGSARTLTLTFLTDSPEVAERFVRELREQKPLRVEASYRRLPDGRYLVTVTIHLDSAGGSAGGSAG [r3_273_TrMRF] | 4.64 ± 0.074 | 3.21 ± 0.084 | 5.14 ± 0.14
SAGGMITLTTKTELIGSYRVTYSVTVDPVDDSVVTSTHVTVTPLPPPPPPLPPVPPENPVLPSPRLESAGGS [r8_234_JUSTAS] | 0.608 ± 0.2 | 0.355 ± 0.15 | 0.56 ± 0.42
SAGKELVLRVRLYRPVPLEEPRVEEREVVVPRKEDEPIEKVVEELLEPDWVLEVEVFDEGKLIERYYTHSAG [r5_278_TrMRF] | 1.11 ± 0.2 | 0.721 ± 0.075 | 1.36 ± 0.22

Sequence | folding stability dG unfold [1] [kcal/mol] | folding stability dG unfold [2] [kcal/mol] | folding stability dG unfold [3] [kcal/mol]
SAPPNHRMVMYEIPIPPGMEIGDEIKLKIKVPGKEYPIKIDRIPNLPPGMRVRIMFNLDNGQFMIQILPSAG [r14_554_TrROS] | 2.77 ± 0.26 | 2.52 ± 0.1 | 2.69 ± 0.062
SAGGSAGGSAGGSDNDGAKPPKIKVEIHPVNMPPGDIVVHNDHYVIAFPNGWFFVIRPKSAGGSAGGSAGGS [r4_394_TrROS] | 1.32 ± 0.14 | 0.911 ± 0.064 | 1.61 ± 0.16
SAGGSAGGSMIKRTVTVTVYFPGKPLSIPVEYTSEEELPVVAEEAVKPIIEKVPEYKIPEPKLSAGGSAGGS [r12_230_JUSTAS] | 0.561 ± 0.33 | 0.529 ± 0.21 | 0.292 ± 0.2
SAPIKIEIDVHQPPPGDYMIMVRIRPPGDGKEFPRMFPFPPDDAEKILENLLSQFPGYEIDDIEPMRYPSAG [r14_969_TrROS] | 1.29 ± 0.16 | 1.26 ± 0.049 | 1.08 ± 0.15
SAGGSAGGSAGEWVTIPIKNPEKLKDLPGLPIKDVEPNGGKPTITFNGDDPERIKEALNDSAGGSAGGSAGG [r11_65_TrROS] | 0.682 ± 0.3 | 0.804 ± 0.057 | 0.498 ± 0.063
SAGGSAGGSAGGSMTITYDKENKTLTIKLPNGKKVLTVNLENMTPEQLKELAKKLGLEVSAGGSAGGSAGGS [r4_49_TrROS_Hall] | 3.44 ± 0.11 | 3.18 ± 0.2 | 3.62 ± 0.076
SAGGSAGGWRIKIMPMGGKKKKIPIDSPEEIIDKIQKEAKEDGLPGNVRITVEYNGQKRTFTIRSAGGSAGG [r6_532_TrROS] | 0.658 ± 0.2 | 1.41 ± 0.16 | -0.203 ± 0.6
SAGGSAGGSAGKKIKYRITIYNKKTGKTIEIEIEMSEDEIKKIAEELAKKYNVKIKIEPVSAGGSAGGSAGG [r11_515_TrROS_Hall] | 4.56 ± 0.18 | 3.71 ± 0.13 | 4.79 ± 0.13
SAGGSAGGSAGKIEIIKDKKNGKYTVKIRNKDGEEIEIEVDSLEELEELAKKLNIEVEVESAGGSAGGSAGG [r11_1049_TrROS_Hall] | 3.18 ± 0.15 | 2.33 ± 0.16 | 3.4 ± 0.21
SAGGSAMTVTYTPSTKTITITDPSNGKPVKVTVTEEKPVVPGKNVYELTVTVPDTGGEKKILITLPSAGGSA [r15_209_JUSTAS] | 0.55 ± 0.11 | 0.848 ± 0.055 | -0.192 ± 0.15
SAGGSAGGSAMITTYDPKTGLVYELVPDPVPGVGVERLVVRVVTVEEFPDAIVRKVEVRPESAGGSAGGSAG [r3_409_JUSTAS] | 0.67 ± 0.14 | -0.211 ± 0.22 | 1.01 ± 0.074
SAGGSGDPNAAPVVVKVTIDITRPTADDSYVTSPVELTLLESEVDEFLAELEKEPDLELKVEVTLESAGGSA [r2_270_JUSTAS] | 1.07 ± 0.11 | 0.829 ± 0.063 | 1.25 ± 0.026
SAGGSPPNITYELTFPDGTVYTDPLPGKSLEELKEYVKSLNFTNVEVTVYEESSEVSTYKVTIPPNESAGGS [r16_700_JUSTAS] | 0.437 ± 0.12 | 0.169 ± 0.079 | 0.57 ± 0.13
SAGGSAGGSAEEEEMPVEELVRRKAREVEEAFPGLRGERRITVTVTLPEGETWTAELVLPLSAGGSAGGSAG [r3_64_TrMRF] | 0.507 ± 0.13 | 0.19 ± 0.19 | 0.502 ± 0.18
SAGGMTETITGEFDDEEEAIAYAKKIVKEKYPNKNVTMEIETTYDPKTGKYKVTATITIPDEGEEHHSAGGS [r8_17_JUSTAS] | 5.94 ± 0.37 | 4.72 ± 0.35 | 5.61 ± 0.18
